Results from patent US20190309034A1 (Boehringer Ingelheim, published 2019).

B1: 409F12A11 (antibody, V domains shown)
VH: IQLQQSGPELVKPGASMKISCKASGYTFTDKYINWVKQRPGQGLEWIGWIYPGSGNTKYNEKFKGMATLTVDTSSNTAYIHLSSLTSEDSAVYFCARGIIYYYDGSYPYALDYWGQGTSVTVSS
VL: DIVLTQSPASLALSLGQRATISCRATKGVSKSGYSYMHWYQQKPGQPPKLLIYLASNLESGVPARFSGSGSGTDFTLNIHPVEEEDVATYYCQHSRELPLTFGAGTKLELK
B2: 436H6A9 (antibody, V domains shown)
VH: QLQQSGPELVKPGASVKISCKASGYTFTDNFINWVKQRPGQGLEWIGWISPGSGNTKNNEKFKGKATVTVDTSSSTAYMQLSSLTSEDSAVYFCARGIIYYYDGTYPYALDYWGQGTSVTVSS
VL: DIVLTQSPASLGVSLGQRATISCRATKGVTKSGYSYIHWYQQKPGQPPKLLIYLASNLQSGVPARFSGSGSGTDFTLNIHPVEEEDAATYYCQHSRELPLTFGAGTKLELK
B3: 384D5A2 (antibody, V domains shown)
VH: QVTLKESGPGILQPSQTLSLTCSFSGFSLNTYGMGVGWIRQPSGKGLEWLANIWWNDDKYYNSALKSRLAISKDASNSQVFLKISSVDTTDTATYYCAQVAATIVTTYGAWFAYWGQGTLVTVSA
VL: DIQMTQSPASLSVSVGETVTITCRSSENIYSSLAWYQQKQGKSPQLLVYAATNLAKGVPSRFSGSGSGTQYSLKINSLQSEDFGSYFCQHFWGSPFAFGSGTKLEIK
B4: 537G7A6 (antibody, V domains shown)
VH: QVQLKESGPGLVAPSQSLSITCTVSGFSLSRYSVHWIRQSPGKGLEWLGMIWGGGNTDYNSGLKSRLSISKDNSKSQVFLKMNSLENDDTAMYYCASPSLYYYDVAWFPYWGQGTLVTVSA
VL: DIVLTQSPASLAVSVGQRATVSCRVSESVDRYADSFMHWYQQKPGQPPKLLIYLASNLESGVPARFSGSGSRTDFTLTIDPVEADDAATYYCQQNKEDPYTFGGGTKLELK
B5: 440E9D12 (antibody, V domains shown)
VH: QVRLRESGPGLVAPSQNLFITCTVSGFSLTDYEINWVRQPPGKNLEWLGVIWTGGGTKYNSVLISRLNISKDNSKRQVFFKMTSLQTDDTAIYYCVREGRRYYAMDYWGQGTSVTVSS
VL: NIVLTQSPASLPVSLGQRATMSCRASKSVDSYGTSFMHWYQHRPGQPPKLLISLASNLESGVPGRFSGSGSRTDFTLTIDPVEPDDAATYYCQQNNEDPRTFGGGTTLEIK
B6: 551H4D6 (antibody, V domains shown)
VH: EVQLQQSGAELVRPGASVELSCTASGFNIKNDYLHWVKQRPEQGLEWIGWIDSANDKTKYAPKFQDKATITADPSSNTAYLQLSSLTSEDTAVYYCTRVGVQDGYYVRDFDYWGQGTTLTVSS
VL: DIVLTQSPASLAVSLGQRATMSCRASESVDSYGNSFIHWYQQKPGQPPRLLIYRASNLNSGIPARFSGSGSRTDFTLTISSVEADDVATYYCHQNNEDPRTFGGGTKLEIK
B7: 418F6D9 (antibody, V domains shown)
VH: QVQLQQSGPELVKPGASVKLSCKASGYTFTDYSIHWVKQSPGQGLEWIGWIYPGSGNTKYNDKFKGKATMTADKSSRTVYMQLSSLTSEESAVYFCARDYRRYYAIDYWGQGTSVTVSS
VL: IVLTQSSASLAVSLGQRATISCRASESVDSYGNSLMHWYQQKPGQPPKLLIYIASNLESGVPARFSGSGSRTDFTLTIDPVEADDAATYYCQQNSEDPRTFGGGTKLEIK
B8: 450A2A7 (antibody, V domains shown)
VH: QVQLQQSGPELVKPGASVKLSCKASGYTFTDYSIHWVKQSPGQGLEWIGWIYPGSDNTKYNDKFKGKASMTADKSSRTVYMHLSSLTSEESAVYFCARDYRRYYAMDYWGQGTSVTVSS
VL: IVLTQSSASLAVSLGQRATISCRASESVDRYGNSLMHWYQQKPGQPPKLLIYIASNLESGVPARFSGSGSRTDFTLTIDPVEADDAATYYCQQNNEDPRTFGGGTKLEIK
B9: 436H2C12 (antibody, V domains shown)
VH: QVQLQQSGPELVKPGASVKLSCKASGYTFSDYTIHWVKQSPGQGLEWIGWIYPGRGNTKYNDKFKGKATMTADKSSSTAYMQLSSLTSEESAVYFCARDYRRYYAMDYWGQGTSVTVSS
VL: NIVLTQSPASLAVSLGQRATISCRASESVDNYGNSFMHWYQQKPGQPPKLLISLASNLESGVPARFSGSGSRTDFTLTIDPVEADDAATYYCQQNNEDPRTFGGGTKLEIK
B10: 441E6F2 (antibody, V domains shown)
VH: RVQLKESGPGLVAPSQSLFITCTVSGFSLTTYEINWVRQSPGKGLEWLGVIWTGGTTKYNSAFISRLSITKDNSKSLVFLKMSSLQTDDTAIYYCVREGRRYYAMDYWGQGTSVTVSS
VL: NIVLTQSPASLAVSLGQRATISCRTSESVDSYGNSFMFWFQQKPGQAPKLLIFLTSNLESGVPARFSGSGSRTDFTLTIDPVEADDAATYYCQQSNEDPRTFGGGTKLEIK
B11: 444G1A10 (antibody, V domains shown)
VH: RVQLKESGPGLVAPSQSLFITCTVSGFSLTTYEINWVRQSPGKGLEWLGVIWTGGTTKYNSAFISRLSITKDNSKSLVFLKMSSLQTDDTAIYYCVREGRRYYAMDYWGQGTSVTVSS
VL: NIVLTQSPASLAVSLGQRATISCRASESVDSYGNSFMFWFQQKPGQAPKLLIFLTSNLESGVPARFSGSGSRTDFTLTIDRVEADDAATYYCQQSNEDPRTFGGGTKLEIK
B12: 381A6A9 (antibody, V domains shown)
VH: QVQLQQSGPELVKPGGSVKISCKAAGYSLTSYYIHWVKQRPGQGLEWIGLIFPGSGNSKYIEKFKGKATLTADTSSNTAYMQLSSLTSEDSAVYYCTRGDFGNYLAYWYFDVWGTGTTVTVSS
VL: DIKMTQSPSSIYASLGERVTITCKASQDINSYLSWFQQKPGKSPKTLMYRANRLVDGVPSRFSGSGSGQDYSLTISSLEYEDMGNYYCLQYDEFPYTFGGGAKLEIK
B13: 443C11A12 (antibody, V domains shown)
VH: EVQLQQSGPELVKPGASVKMSCTASGYTFTSYVIHWMKQKPGQGLEWIGYLHRNNDGTKYNEKFKVKATLTSDESSNTAYMELSSLTSEDSAVYYCARGDYSNYFYWYFDVWGAGTTVSVSS
VL: DIKMTPSPSSMYASLGERVTITCKASQDINSYLSWFQQKPGKSPKTLIYRANRLVDGVPSRFSGSGSGQDYSLTISSLEYEDMGIYYCLQYDEFPYTSGGGTKLEIK
B14: 435A6B3 (antibody, V domains shown)
VH: EVQLQQSGPELVKPGASMKMSCKASGYTFTSYVMHWMKQKPGQGLEWIGYLNPNNDGTKYNEKFKGKATLTSDKSSSTAYMELSSLTSEDSAVYYCARGDYSNYFYWYFDVWGAGTTVSVSS
VL: DIKMTPSPSSMYASLGERVTITCKASQDINRYLSWFQQKPGKSPKTLIYRANRLVDGVPSRFSGSGSGQDYSLTISSLEYEDMGIYYCLQYDEFPYTFGGGTKLEIK
B15: 394F5A5 (antibody, V domains shown)
VH: VTLKESGPGILQPSQTLSLTCSFSGFSLRTFGMGVGWIRQPSGKGLEWLAHIWWNDEKYYNPTLKSRLTISKDTSKNQVFLRIANVDTAVTAAYYCARIGPSITTVVEGFPYWGQGTLVTVSA
VL: DIVMTQSQKFMSTTIGDRVSITCKASQNVGSAVAWYQQKPGQPPKLLIYSTSNRYTGVPDRFTGSRSGTDFTLTVSNMQSEDLADYFCQQYASYPLTFGTGTKLELK
B16: 431G5A3 (antibody, V domains shown)
VH: QLQQSGPELVKPGASVKLSCKASGYTFTDYSIHWVKQSPGQGLEWIGWIYPGSDNTKYNDKFKGKASMTADKSSRTVYMHLSSLTSEESAVYFCARDYRRYYAMDYWGQGTSVTVSS
VL: KIVLTQSSASLAVSLGQRATISCRASESVDRYGNSLMHWYQQKPGQPPKLLIYIASNLESGVPARFSGSGSRTDFTLTIDPVEADDAATYYCQQNNEDPRTFGGGTKLEIK

Experiments:
[1] = target: Recombinant soluble trimeric human BAFF (furin-cleaved human BAFF 134-285) (human, UniProt Q9Y275 134-285); experiment: cell-based or functional assay
[2] = target: Recombinant soluble 60-mer human BAFF (His-HuBAFF 134-285) (human, UniProt Q9Y275 134-285); experiment: cell-based or functional assay

| Binder | Soluble trimeric huBAFF (50 pM) Neutralization IC50 [1] [pM] | Soluble trimeric huBAFF (50 pM) Neutralization IC90 [1] [pM] | Soluble 60-mer huBAFF (4 pM) Neutralization IC50 [2] [pM] | Soluble 60-mer huBAFF (4 pM) Neutralization IC90 [2] [pM] |
| --- | --- | --- | --- | --- |
| B1 | 31 | 390 | 16 | 44 |
| B2 | 26 | 266 | 10 | 27 |
| B3 | 42 | 765 | 15 | 44 |
| B4 | 28 | 329 | 13 | 39 |
| B5 | 31 | 259 | 11 | 31 |
| B6 | 110 | 257 | 234 | 1980 |
| B7 | 38 | 491 | 27 | 154 |
| B8 | 36 | 602 | 24 | 130 |
| B9 | 27 | 408 | 15 | 37 |
| B10 | 43 | 293 | 16 | 37 |
| B11 | 25 | 284 | 12 | 35 |
| B12 | 44 | 240 | 17 | 42 |
| B13 | 33 | 309 | 13 | 30 |
| B14 | 23 | 294 | 10 | 26 |
| B15 | 16 | 433 | 7 | 29 |
| B16 | 28 | 336 | 21 | 100 |
